This note sets out measurements from patent US20180369341A1.

Experiment [1] has as its target FcRn. The experiment in a line: FcRn binding assay (method not described); Aggregation Study, albiglutide in NaCl + cysteine formulation, stored at 2-8°C for 2 months.
For experiment [2], the target named is human GLP-1 receptor (human) (UniProt P43220). The experiment in a line: cell-based or functional assay.
The target in experiment [3] is FcRn. The experiment in a line: FcRn binding assay (method not described); Aggregation Study, albiglutide in NaCl, octanoate and cysteine formulation, stored at 2-8°C for 2 months.
The target of experiment [4] is FcRn. The experiment in a line: FcRn binding assay (method not described); Aggregation Study, albiglutide in NaCl, octanoate and cysteine formulation, stored at 30°C for 2 months.
The target in experiment [5] is FcRn. The experiment in a line: FcRn binding assay (method not described); Aggregation Study, albiglutide in NaCl + cysteine formulation, stored at 30°C for 2 months.

UniProt P43220, sequence (P43220 24-463): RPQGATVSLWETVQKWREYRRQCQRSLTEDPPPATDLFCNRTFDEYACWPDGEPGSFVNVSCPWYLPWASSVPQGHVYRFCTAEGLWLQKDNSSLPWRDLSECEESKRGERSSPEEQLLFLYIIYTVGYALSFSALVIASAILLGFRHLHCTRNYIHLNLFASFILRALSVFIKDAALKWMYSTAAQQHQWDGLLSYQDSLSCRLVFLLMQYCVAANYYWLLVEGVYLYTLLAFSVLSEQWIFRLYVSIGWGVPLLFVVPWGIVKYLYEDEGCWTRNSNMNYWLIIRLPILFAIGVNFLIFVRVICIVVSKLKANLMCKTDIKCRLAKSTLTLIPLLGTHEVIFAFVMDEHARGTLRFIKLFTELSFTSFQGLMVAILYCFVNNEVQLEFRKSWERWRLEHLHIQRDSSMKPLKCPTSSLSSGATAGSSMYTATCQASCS

On to “albiglutide (from UniProt P02768 25-609) (ligand)”, for which the decrease in FcRn binding with FcRn [1] was 6%; with FcRn [3], 16%; with FcRn [4] it was 23%; in the experiment with FcRn [5], 23%. In addition, the Bioassay potency; Aggregation Study, all formulations, 2 months 30°C (lower end) in experiment [2] was 130%. This substance also gave a Bioassay potency; Aggregation Study, all formulations, 2 months 30°C (upper end) in experiment [2] of 160%. In experiment [2], this substance gave a Bioassay potency; PFS Study, Variations A and B, 1 month 40°C of 180%. The substance further gave a Bioassay potency; PFS Study, all variations, 3 months 30°C in experiment [2] of 130%.
